Measurements as given in patent US20190389914A1 (University of California, published 2019).
Where a chain is given by its changes, count along the chain named.

Legend:
[1] = target: T1, GAL4 activation domain fusion to HAB1^V393R (Arabidopsis thaliana (Mouse-ear cress), UniProt Q9CAJ0 4-511); assay: Y2H, beta-gal staining
T1 construct: Mutant of the pACT-HAB1 template, which lacks the three N-terminal amino acids of HAB1; Denoted HAB1^!
T1 sequence: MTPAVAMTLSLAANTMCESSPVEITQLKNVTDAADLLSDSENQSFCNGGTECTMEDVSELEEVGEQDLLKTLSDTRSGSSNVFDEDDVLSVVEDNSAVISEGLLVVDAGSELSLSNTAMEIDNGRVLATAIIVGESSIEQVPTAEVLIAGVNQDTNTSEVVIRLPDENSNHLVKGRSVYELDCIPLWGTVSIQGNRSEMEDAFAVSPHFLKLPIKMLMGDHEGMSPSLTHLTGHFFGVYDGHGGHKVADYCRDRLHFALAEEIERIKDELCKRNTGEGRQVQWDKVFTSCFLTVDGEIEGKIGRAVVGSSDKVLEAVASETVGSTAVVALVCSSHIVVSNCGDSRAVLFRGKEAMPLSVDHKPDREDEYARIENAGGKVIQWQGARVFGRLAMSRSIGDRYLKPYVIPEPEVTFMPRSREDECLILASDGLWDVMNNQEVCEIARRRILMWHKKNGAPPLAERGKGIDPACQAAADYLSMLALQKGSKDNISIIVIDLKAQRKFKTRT

[2] = target: T2, GAL4 activation domain fusion to HAB1 V393Q (Arabidopsis thaliana (Mouse-ear cress), UniProt Q9CAJ0 4-511); assay: Y2H, beta-gal staining
T2 construct: Mutant of the pACT-HAB1 template, which lacks the three N-terminal amino acids of HAB1
T2 sequence: T1 sequence with R390Q

B1: GAL4 DNA binding domain fusion to PYR1 (pBD-PYR1), wild type (receptor)
chain: MKLLSSIEQACDICRLKKLKCSKEKPKCAKCLKNNWECRYSPKTKRSPLTRAHLTEVESRLERLEQLFLLIFPREDLDMILKMDSLQDIKALLTGLFVQDNVNKDAVTDRLASVETDMPLTLRQHRISATSSSEESSNKGQRQLTVSMPSELTPEERSELKNSIAEFHTYQLDPGSCSSLHAQRIHAPPELVWSIVRRFDKPQTYKHFIKSCSVEQNFEMRVGCTRDVIVISGLPANTSTERLDILDDERRVTGFSIIGGEHRLTNYKSVTTVHRFEKENRIWTVVLESYVVDMPEGNSEDDTRMFADTVVKLNLQKLATVAEAMARNSGDGSGSQVT
notes: Yeast two-hybrid bait expressed in S. cerevisiae; also called WT
binding result [1]: no binding (tested: 10 µM ABA) | binding result [2]: no binding (tested: 10 µM ABA)
